We go through 12 molecules from patent US20150246946A1, “PEPTIDES AND METHODS FOR TREATING CANCER” (AGENCY FOR SCIENCE, TECHNOLOGY AND RESEARCH, priority 2012, published 2015).

In one series the test system is p53 null thymocytes. In words: cell viability in mouse thymocytes, p53 null. The class given is cell-based, mice. The following applies: high doses, 24 hours, annexin V/PI.
Series [1] addresses T1, Mdm2 (1-125) (Homo sapiens, UniProt Q00987).
T1 construct: Mdm2 (1-125) and Mdm4 (1-125) were ligated into the GST fusion expression vector pGEX-6P-1; GST (N, cleaved yes); made in house; host or cells: E. coli BL21 DE3
Kind of series: competitive fluorescence polarization/anisotropy, apparent Kd against Mdm2. It counts as binding. As to the method: (§1) The cells expressing the GST fusion constructs were grown in LB medium at 37° C. to an OD600 of ˜0.6 and induction was started with 1 mM IPTG and carried out overnight at room temperature. Cells were harvested by centrifugation and the cell pellets were re-suspended in 50 mM Tris pH 8.0, 10% sucrose and were then sonicated. The sonicated sample was centrifuged for 60 mins at 17,000 g at 4° C. […] The column was then further washed by 6 volumes of wash buffer. Mdm2 and Mdm4 were then purified from the column by cleavage with Precission (GE Lifesciences) protease. 10 units of precission protease, in one column volume of PBS with 1 mM DTT buffer, were injected onto the column. The cleavage reaction was allowed to proceed overnight at 4° C. The cleaved protein was then eluted of the column with wash buffer. Protein fractions were analyzed with SDS page gel and concentrated using a Centricon (3.5 kDa MWCO) concentrator, Millipore. Mdm2 and Mdm4 protein samples were then dialyzed into a buffer solution containing 20 mM Bis-Tris, pH 6.5, 0.05M NaCl with 1 mM DTT and loaded onto a monoS column pre-equilibrated in buffer A (20 mM Bis-Tris, pH 6.5, 1 mM DTT). The column was then washed in 6 column volumes of buffer A and bound protein was eluted with a linear gradient of 1M NaCL over 25 column volumes. Protein fractions were analyzed with SDS page gel and concentrated using a Centricon (3.5 kDa MWCO) concentrator from Millipore.
(§2) Apparent Kd values were determined for a variety of molecules via competitive fluorescence anisotropy experiments. […] The competing molecules were then titrated against complex of the FAM labelled peptide and protein. Apparent Kd values were determined by fitting the experimental data to the equations shown below:
(§3) [L]st and [L]t denote labelled ligand and total unlabelled ligand input concentrations, respectively. Kd2 is the dissociation constant of the interaction between the unlabelled ligand and the protein. In all competitive types of experiments, it is assumed that [P]t>[L]st, otherwise considerable amounts of free labelled ligand would always be present and would interfere with measurements. […] The FAM-labelled peptide were dissolved in DMSO at 1 mM and diluted into experimental buffer. Readings were carried out with a Envision Multilabel Reader (PerkinElmer). […] All titrations were carried out in triplicate. Curve-fitting was carried out using Prism 4.0 (GraphPad).
On the technique in general: In fluorescence polarisation assays a small probe gives low polarisation when free and higher when bound to something large.

The target of series [2] is T2, Mdm4 (1-125) (Homo sapiens, UniProt O15151).
T2 construct: Mdm4 (1-125) were ligated into the GST fusion expression vector pGEX-6P-1; GST (N, cleaved yes); made in house; host or cells: E. coli BL21 DE3
T2 sequence (O15151 1-125): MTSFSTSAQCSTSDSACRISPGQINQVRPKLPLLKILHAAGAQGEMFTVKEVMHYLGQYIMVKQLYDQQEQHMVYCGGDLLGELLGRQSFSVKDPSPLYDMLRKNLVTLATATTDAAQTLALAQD
In words: competitive fluorescence polarization/anisotropy, apparent Kd against Mdm4. It counts as binding. On the procedure: as §1, §2, §3

Series [3] has as its system p53 responsive LacZ reporter gene in T22 cell line. In words: T22 p53 β-galactosidase based reporter assay. The class given is cell-based, murine. The following applies: 18 hours, DMEM with 10% FBS. As to the method:
T22 cells, which were stably transfected with a p53 responsive […] reporter, were seeded into 96-well plate at a cell density of 8000 cells per well. […] Measurements were carried out using a Safire II multiplate reader (TECAN). Experiments were carried out independently twice.

The target of series [4] is T3, Mdm4 (1-125) (human, UniProt O15151 1-125).
T3 construct: range 1-125; also called MDMX; Hdm4
T3 sequence (looked up): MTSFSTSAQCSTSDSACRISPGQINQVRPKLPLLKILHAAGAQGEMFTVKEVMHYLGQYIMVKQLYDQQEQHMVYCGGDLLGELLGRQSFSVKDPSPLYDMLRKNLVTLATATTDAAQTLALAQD
In words: apparent Kd, competitive fluorescence polarization; displacement of FAM-…-NH2 from Mdm4 (1-125).

Series [5] concerns the target T4, Mdm2 (1-125) (human, UniProt Q00987 1-125).
T4 construct: range 1-125; also called Hdm2
Kind of series: apparent Kd, competitive fluorescence polarization; displacement of FAM-…-NH2 from Mdm2 (1-125).

Series [6] deals with T3, Mdm4 (1-125). Kind of series: apparent Kd, competitive fluorescence polarization; displacement of FAM-…-NH2 from Mdm4 (1-125). The source holds these as a separate data set.
In series [7] the target is T4, Mdm2 (1-125). Kind of series: apparent Kd, competitive fluorescence polarization; displacement of FAM-…-NH2 from Mdm2 (1-125). The source holds these as a separate data set.

Read-outs that look alike come from different tables or passages of the source. Where a SMILES comes first, the peptide text is derived from it. Bridges are numbered along the chain shown (N, C = ends). [ ]: non-standard residue; d: D form. Trp(6-Cl) = N[C@@H](Cc1c[nH]c2cc(Cl)ccc12)C(=O)O; dTrp(6-Cl) = N[C@H](Cc1c[nH]c2cc(Cl)ccc12)C(=O)O; R8 = C=CCCCCCC[C@@](C)(N)C(=O)O; S5 = C=CCCC[C@](C)(N)C(=O)O

T4 sequence (Q00987 1-125 limits assumed): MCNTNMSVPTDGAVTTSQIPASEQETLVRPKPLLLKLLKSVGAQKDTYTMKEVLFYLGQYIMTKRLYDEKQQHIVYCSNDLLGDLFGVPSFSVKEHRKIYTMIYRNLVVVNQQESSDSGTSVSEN
T1 sequence (Q00987 1-125): as the sequence (Q00987 1-125 limits assumed) above

For the molecule `COc1ccc(C2=N[C@@H](c3ccc(Cl)cc3)[C@@H](c3ccc(Cl)cc3)N2C(=O)N2CCNC(=O)C2)c(OC(C)C)c1` [nutlin, reference compound], the “apoptosis in p53 null thymocytes” value with p53 null thymocytes is reported as “caused apoptosis in p53 null thymocytes”. In the case of `CC(=O)N[C@H](C(=O)N[C@@H](CO)C(=O)N[C@@H](Cc1ccccc1)C(=O)N[C@]1(C)CCCCCCC=CCCC[C@@](C)(C(N)=O)NC(=O)[C@H](CC(C)C)NC(=O)[C@H](CC(C)C)NC(=O)[C@H](CC(N)=O)NC(=O)[C@H](Cc2c[nH]c3ccccc23)NC(=O)[C@H](Cc2ccc(O)cc2)NC(=O)[C@H](CCC(=O)O)NC1=O)[C@@H](C)O` [sMTide-01, Ac-^1TSFXEYWNLLX^11-NH2] (Ac-TSF[R8]EYWNLL[S5]-NH2; staple 4-11), the “increase in Kd against Mdm2 in comparison to unstapled counterpart” value at Mdm2 (1-125) [1] (stapled vs unstapled peptide) is recorded as “approximately 2 fold”. The “increase in Kd against Mdm4 in comparison to unstapled counterpart” value on Mdm4 (1-125) [2] (stapled vs unstapled peptide) was found to be 4 fold. The “p53 transcriptional activity in T22 p53 reporter assay” value (“p53 transcriptional activity” below) in series [3] is recorded as “little activity”.

As to `CC(=O)N[C@H](C(=O)N[C@@H](CO)C(=O)N[C@@H](Cc1ccccc1)C(=O)N[C@]1(C)CCCCCCC=CCCC[C@@](C)(C(N)=O)NC(=O)[C@H](CC(C)C)NC(=O)[C@H](CC(C)C)NC(=O)[C@H](C)NC(=O)[C@@H](Cc2c[nH]c3cc(Cl)ccc23)NC(=O)[C@H](Cc2ccc(O)cc2)NC(=O)[C@H](CCC(=O)O)NC1=O)[C@@H](C)O` [sMTide-02B, Ac-^1TSFXEY(D-6-Cl)WALLX^11-NH2], the “Mdm4 Kd” value at Mdm4 (1-125) [2] (apparent Kd, competitive fluorescence polarization, Mdm4 75 nM, FAM peptide 50 nM) is listed as “attenuated”. In addition, the “p53 transcriptional activity” value in series [3] was “negligible activity”. On to `CC(=O)N[C@@H](CO)C(=O)N[C@@H](Cc1ccccc1)C(=O)N[C@]1(C)CCCCCCC=CCCC[C@@](C)(C(N)=O)NC(=O)[C@H](CC(C)C)NC(=O)[C@H](CC(C)C)NC(=O)[C@H](C)NC(=O)[C@H](Cc2c[nH]c3ccccc23)NC(=O)[C@H](Cc2ccc(O)cc2)NC(=O)[C@H](CCC(=O)O)NC1=O` [sMTide-04, Ac-^2SFXEYWALLX^11-NH2] (Ac-SF[R8]EYWALL[S5]-NH2; staple 3-10), for which the “preference between Mdm2 and Mdm4 in binding” value on Mdm2 (1-125) [1] (comparison of apparent Kds) is “interacted more tightly with Mdm4 than with Mdm2”.

`CC(=O)N[C@H](C(=O)N[C@@H](CO)C(=O)N[C@@H](Cc1ccccc1)C(=O)N[C@]1(C)CCCCCCC=CCCC[C@@](C)(C(N)=O)NC(=O)[C@H](CC(C)C)NC(=O)[C@H](CC(C)C)NC(=O)[C@H](Cc2ccccc2)NC(=O)[C@H](Cc2c[nH]c3ccccc23)NC(=O)[C@H](Cc2ccc(O)cc2)NC(=O)[C@H](CCC(=O)O)NC1=O)[C@@H](C)O` [sMTide-07, Ac-^1TSFXEYWFLLX^11-NH2] (Ac-TSF[R8]EYWFLL[S5]-NH2; staple 4-11): in series [3], the “p53 transcriptional activity” value is reported as “diminish the ability of sMTide-07 to induce p53, compared to sMTide-06”.

B1: sMTide-02A (peptide)
peptide: Ac-TSF[R8]EY[Trp(6-Cl)]ALL[S5]-NH2
modifications: staple 4-11
notes: also called Ac-TSFXEY(L-6-Cl)WALLX-NH2; L-isomer
Take B1: in the series with Mdm4 (1-125) [4], the Kd was 1360 nM.

B2: sMTide-04 (peptide)
peptide: Ac-SF[R8]EYWALL[S5]-NH2
modifications: staple 3-10
SMILES: CC(=O)N[C@@H](CO)C(=O)N[C@@H](Cc1ccccc1)C(=O)N[C@]1(C)CCCCCCC=CCCC[C@@](C)(C(N)=O)NC(=O)[C@H](CC(C)C)NC(=O)[C@H](CC(C)C)NC(=O)[C@H](C)NC(=O)[C@H](Cc2c[nH]c3ccccc23)NC(=O)[C@H](Cc2ccc(O)cc2)NC(=O)[C@H](CCC(=O)O)NC1=O
notes: also called Ac-SFXEYWALLX-NH2
In the case of B2, the Kd stood at 104 nM with Mdm2 (1-125) [5] and 63 nM with Mdm4 (1-125) [6].

B3: sMTide-05 (peptide)
peptide: Ac-TSF[R8]EYWKLL[S5]-NH2
modifications: staple 4-11
SMILES: CC(=O)N[C@H](C(=O)N[C@@H](CO)C(=O)N[C@@H](Cc1ccccc1)C(=O)N[C@]1(C)CCCCCCC=CCCC[C@@](C)(C(N)=O)NC(=O)[C@H](CC(C)C)NC(=O)[C@H](CC(C)C)NC(=O)[C@H](CCCCN)NC(=O)[C@H](Cc2c[nH]c3ccccc23)NC(=O)[C@H](Cc2ccc(O)cc2)NC(=O)[C@H](CCC(=O)O)NC1=O)[C@@H](C)O
notes: also called Ac-TSFXEYWKLLX-NH2
On to B3, for which the Kd in the series with Mdm2 (1-125) [5] was determined as 26.3 nM; with Mdm4 (1-125) [6], 29.9 nM.

B4: sMTide-07 (peptide)
peptide: Ac-TSF[R8]EYWFLL[S5]-NH2
modifications: staple 4-11
SMILES: CC(=O)N[C@H](C(=O)N[C@@H](CO)C(=O)N[C@@H](Cc1ccccc1)C(=O)N[C@]1(C)CCCCCCC=CCCC[C@@](C)(C(N)=O)NC(=O)[C@H](CC(C)C)NC(=O)[C@H](CC(C)C)NC(=O)[C@H](Cc2ccccc2)NC(=O)[C@H](Cc2c[nH]c3ccccc23)NC(=O)[C@H](Cc2ccc(O)cc2)NC(=O)[C@H](CCC(=O)O)NC1=O)[C@@H](C)O
notes: also called Ac-TSFXEYWFLLX-NH2
For the molecule B4, the values for the Kd in the series with Mdm2 (1-125) [5] and with Mdm4 (1-125) [6] were 175 nM and 394 nM, respectively.

B5: sMTide-06 (peptide)
peptide: Ac-TSF[R8]EYWYLL[S5]-NH2
modifications: staple 4-11
SMILES: CC(=O)N[C@H](C(=O)N[C@@H](CO)C(=O)N[C@@H](Cc1ccccc1)C(=O)N[C@]1(C)CCCCCCC=CCCC[C@@](C)(C(N)=O)NC(=O)[C@H](CC(C)C)NC(=O)[C@H](CC(C)C)NC(=O)[C@H](Cc2ccc(O)cc2)NC(=O)[C@H](Cc2c[nH]c3ccccc23)NC(=O)[C@H](Cc2ccc(O)cc2)NC(=O)[C@H](CCC(=O)O)NC1=O)[C@@H](C)O
notes: also called Ac-TSFXEYWYLLX-NH2
As for B5, the values for the Kd with Mdm2 (1-125) [5] and with Mdm4 (1-125) [6] were 128 nM and 328 nM, respectively. In the case of Ac-TSFAEYWNLLS-NH2 (Linear phage-derived peptide) [MTide-01], the figures for the Kd with Mdm2 (1-125) [7] and with Mdm4 (1-125) [4] were 46.3 nM and 33.2 nM, respectively.

B6: sMTide-02B (peptide)
peptide: Ac-TSF[R8]EY[dTrp(6-Cl)]ALL[S5]-NH2
modifications: staple 4-11
notes: also called Ac-TSFXEY(D-6-Cl)WALLX-NH2; D-isomer
For the molecule B6, in the series with Mdm4 (1-125) [4], the Kd was 2160 nM.
